Measured values reported in PMC11371640, “Structural deficits in key domains of Shank2 lead to alterations in postsynaptic nanoclusters and to a neurodevelopmental disorder in humans” (Molecular Psychiatry, 2022).
Substitutions are numbered along the chain they refer to. Names may count otherwise.

Tests used:
[1] = molecular target: T1, GST fusion protein of the GKAP C-terminus (50 C-terminal residues), P97836-4; assay: GST pulldown, Western blot quantification; details: chain shown with the change; 293T cell lysates; four independent experiments; parent: est. 3.8; read off a plot
T1 chain: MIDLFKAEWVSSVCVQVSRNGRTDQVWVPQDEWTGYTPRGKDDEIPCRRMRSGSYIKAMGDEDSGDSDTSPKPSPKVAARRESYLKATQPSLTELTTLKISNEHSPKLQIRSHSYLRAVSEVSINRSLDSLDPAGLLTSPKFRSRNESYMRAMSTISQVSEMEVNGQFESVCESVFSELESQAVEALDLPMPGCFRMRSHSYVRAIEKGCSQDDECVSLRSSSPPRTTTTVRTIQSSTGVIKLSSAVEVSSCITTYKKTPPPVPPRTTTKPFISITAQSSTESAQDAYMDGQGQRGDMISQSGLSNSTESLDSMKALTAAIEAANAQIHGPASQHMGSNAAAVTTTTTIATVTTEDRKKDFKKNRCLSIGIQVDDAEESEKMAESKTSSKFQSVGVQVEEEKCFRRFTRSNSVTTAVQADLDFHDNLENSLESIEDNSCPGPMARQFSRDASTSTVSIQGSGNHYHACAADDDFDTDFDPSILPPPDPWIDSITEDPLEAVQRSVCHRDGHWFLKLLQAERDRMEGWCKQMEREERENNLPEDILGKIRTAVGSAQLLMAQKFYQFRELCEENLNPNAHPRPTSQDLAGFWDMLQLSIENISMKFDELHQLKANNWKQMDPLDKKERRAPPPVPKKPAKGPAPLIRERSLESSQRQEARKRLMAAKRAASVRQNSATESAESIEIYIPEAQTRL

[2] = molecular target: T2, His6-SUMO-tagged SH3 to PDZ domains of Shank2 (R520-D727), WT ( (human or rat cDNA cloned), UniProt Q9UPX8-3 520-727); assay: ITC; peptide in the syringe (200 µM; 1 mM for G643R), His6-SUMO SH3-PDZ protein in the cell (20-30 µM); 25 °C; 50 mM Tris-HCl pH 8.0, 100 mM NaCl, 1 mM EDTA; 1:1 binding model; details: both partners purified
T2 construct: Shank2, SH3 to PDZ domains, residues R520-D727; numbers count on: NM_012309.5 (isoform of 1849 residues); Cloned into pET-SUMO; also called His6-SUMO-SH3-PDZ fusion; Shank2 WT; source: E. coli BL21(DE3), purified (Ni-NTA agarose, G-25); not shown: His6, N-terminal, kept; SUMO, N-terminal, kept
T2 sequence (looked up): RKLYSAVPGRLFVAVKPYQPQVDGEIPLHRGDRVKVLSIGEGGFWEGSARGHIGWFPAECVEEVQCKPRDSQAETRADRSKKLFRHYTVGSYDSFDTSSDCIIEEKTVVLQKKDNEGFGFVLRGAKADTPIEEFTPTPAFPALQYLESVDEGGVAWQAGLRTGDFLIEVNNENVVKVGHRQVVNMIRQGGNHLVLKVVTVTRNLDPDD

[3] = molecular target: the molecule itself; assay: turbidity (absorbance at 350 nm); His6-SUMO-tagged SAM domains, 10 µM, mixed with Zn2+ in 96-well plates (200 µl); absorbance after 10 min or every 10 s with 10 µM Zn2+; 0.5 M NaCl, 20 mM Tris/HCl pH 7.5
[4] = molecular target: the molecule itself; assay: dynamic light scattering; isolated SAM domains (tag cleaved), 50 µM protein and 50 µM Zn2+, 1 h at room temperature, filtered 0.22 µm
[5] = molecular target: the molecule itself; assay: crystal structure; Shank2-SAM WT (0.1 M Bis-Tris pH 5.5, 0.3 M Mg-formate) and L1800W (0.1 M Bis-Tris pH 5.5, 26% PEG 2000MME); sitting drop vapor diffusion; contacts between symmetry-related SAM domains in the crystal; no Zn2+ added

B1: mCherry-tagged human Shank2a (WT), Q9UPX8-3 S610Y (protein)
chain: MPRSPTSSEDEMAQSFSDYSVGSESDSSKEETIYDTIRATAEKPGGARTEESQGNTLVIRVVIHDLQQTKCIRFNPDATVWVAKQRILCTLTQSLKDVLNYGLFQPASNGRDGKFLDEERLLREYPQPVGEGVPSLEFRYKKRVYKQASLDEKQLAKLHTKTNLKKCMDHIQHRLVEKITKMLDRGLDPNFHDPETGETPLTLAAQLDDSVEVIKALKNGGAHLDFRAKDGMTALHKAARARNQVALKTLLELGASPDYKDSYGLTPLYHTAIVGGDPYCCELLLHEHATVCCKDENGWHEIHQACRYGHVQHLEHLLFYGADMSAQNASGNTALHICALYNQDSCARVLLFRGGNKELKNYNSQTPFQVAIIAGNFELAEYIKNHKETDIVPFREAPAYSNRRRRPPNTLAAPRVLLRSNSDNNLNASAPDWAVCSTATSHRSLSPQLLQQMPSKPEGAAKTIGSYVPGPRSRSPSLNRLGGAGEDGKRPQPLWHVGSPFALGANKDSLSAFEYPGPKRKLYSAVPGRLFVAVKPYQPQVDGEIPLHRGDRVKVLSIGEGGFWEGSARGHIGWFPAECVEEVQCKPRDSQAETRADRSKKLFRHYTVGYYDSFDTSSDCIIEEKTVVLQKKDNEGFGFVLRGAKADTPIEEFTPTPAFPALQYLESVDEGGVAWQAGLRTGDFLIEVNNENVVKVGHRQVVNMIRQGGNHLVLKVVTVTRNLDPDDTARKKAPPPPKRAPTTALTLRSKSMTSELEELVDKASVRKKKDKPEEIVPASKPSRAAENMAVEPRVATIKQRPSSRCFPAGSDMNSVYERQGIAVMTPTVPGSPKAPFLGIPRGTMRRQKSIDSRIFLSGITEEERQFLAPPMLKFTRSLSMPDTSEDIPPPPQSVPPSPPPPSPTTYNCPKSPTPRVYGTIKPAFNQNSAAKVSPATRSDTVATMMREKGMYFRRELDRYSLDSEDLYSRNAGPQANFRNKRGQMPENPYSEVGKIASKAVYVPAKPARRKGMLVKQSNVEDSPEKTCSIPIPTIIVKEPSTSSSGKSSQGSSMEIDPQAPEPPSQLRPDESLTVSSPFAAAIAGAVRDREKRLEARRNSPAFLSTDLGDEDVGLGPPAPRTRPSMFPEEGDFADEDSAEQLSSPMPSATPREPENHFVGGAEASAPGEAGRPLNSTSKAQGPESSPAVPSASSGTAGPGNYVHPLTGRLLDPSSPLALALSARDRAMKESQQGPKGEAPKADLNKPLYIDTKMRPSLDAGFPTVTRQNTRGPLRRQETENKYETDLGRDRKGDDKKNMLIDIMDTSQQKSAGLLMVHTVDATKLDNALQEEDEKAEVEMKPDSSPSEVPEGVSETEGALQISAAPEPTTVPGRTIVAVGSMEEAVILPFRIPPPPLASVDLDEDFIFTEPLPPPLEFANSFDIPDDRAASVPALSDLVKQKKSDTPQSPSLNSSQPTNSADSKKPASLSNCLPASFLPPPESFDAVADSGIEEVDSRSSSDHHLETTSTISTVSSISTLSSEGGENVDTCTVYADGQAFMVDKPPVPPKPKMKPIIHKSNALYQDALVEEDVDSFVIPPPAPPPPPGSAQPGMAKVLQPRTSKLWGDVTEIKSPILSGPKANVISELNSILQQMNREKLAKPGEGLDSPMGAKSASLAPRSPEIMSTISGTRSTTVTFTVRPGTSQPITLQSRPPDYESRTSGTRRAPSPVVSPTEMNKETLPAPLSAATASPSPALSDVFSLPSQPPSGDLFGLNPAGRSRSPSPSILQQPISNKPFTTKPVHLWTKPDVADWLESLNLGEHKEAFMDNEIDGSHLPNLQKEDLIDLGVTRVGHRMNIERALKQLLDR
B1 was tested, and the response (Precipitate / Input) [1] was 2.4.

B2: mCherry-tagged human Shank2a (WT), Q9UPX8-3 N690S (protein)
chain: B1 chain with Y610S, N690S
B2 gave a response (Precipitate / Input) [1] of 2.8.

B3: mCherry-tagged human Shank2a (WT), Q9UPX8-3 G643R (protein)
chain: B1 chain with Y610S, G643R
B3 showed a response (Precipitate / Input) [1] of 0.3.

B4: synthetic peptide of the C-terminal PDZ ligand of CIRL1/latrophilin (peptide)
peptide: PGPDGDGQMQLVTSL
notes: CIRL1/latrophilin, C-terminal PDZ ligand (15 residues), free N- and C-terminus; also called CIRL1 peptide; source: synthetic peptide (Genscript)
With B4 the “fold reduction of affinity against the GKAP peptide” value [2] was ~40 fold.

B5: His6-SUMO-tagged Shank2-SAM domain (T1780-R1849), WT (domain or fragment, UniProt Q9UPX8-3 1780-1849, looked up)
chain: TKPVHLWTKPDVADWLESLNLGEHKEAFMDNEIDGSHLPNLQKEDLIDLGVTRVGHRMNIERALKQLLDR
notes: Shank2 SAM domain, residues T1780-R1849; numbers count on: NM_012309.5 (isoform of 1849 residues); also called SUMO-SAM fusion; WT SAM domain; source: E. coli BL21(DE3), purified (Ni-NTA agarose, G-25); not shown: His6, N-terminal, kept; SUMO, N-terminal, kept
B5: binds [3].

B6: His6-SUMO-tagged Shank2-SAM domain (T1780-R1849), L1800W (domain or fragment, UniProt Q9UPX8-3 1780-1849, looked up)
chain: B5 chain with L21W
notes: Shank2 SAM domain, residues T1780-R1849, patient variant L1800W; numbers count on: NM_012309.5 (isoform of 1849 residues); also called L1800W mutant; p.L1800W SAM domain; source: E. coli BL21(DE3), purified (Ni-NTA agarose, G-25); not shown: His6, N-terminal, kept; SUMO, N-terminal, kept
B6: binds [3].

B7: Shank2-SAM domain (T1780-R1849), WT, His-SUMO tag cleaved off (domain or fragment, UniProt Q9UPX8-3 1780-1849, looked up)
chain: B5 chain
notes: Shank2 SAM domain, residues T1780-R1849; numbers count on: NM_012309.5 (isoform of 1849 residues); also called SAM-WT; Shank2-SAM WT; source: E. coli BL21(DE3), purified (Ni-NTA agarose), tag cleaved with SUMO protease and removed on Ni-NTA; not shown: His6, N-terminal, cleaved; SUMO, N-terminal, cleaved
B7: binds [4].

B8: Shank2-SAM domain (T1780-R1849), L1800W, His-SUMO tag cleaved off (domain or fragment, UniProt Q9UPX8-3 1780-1849, looked up)
chain: B5 chain with L21W
notes: Shank2 SAM domain, residues T1780-R1849, patient variant L1800W; numbers count on: NM_012309.5 (isoform of 1849 residues); also called SAM-L1800W; L1800W mutant SAM domain; source: E. coli BL21(DE3), purified (Ni-NTA agarose), tag cleaved with SUMO protease and removed on Ni-NTA; not shown: His6, N-terminal, cleaved; SUMO, N-terminal, cleaved
B8: binds [5].
